# Measurements published in patent US20230118307A1, “THERAPEUTIC USE OF LONG-ACTING CONJUGATE OF TRIPLE AGONIST HAVING ACTIVITIES TO ALL OF GLUCAGON/GLP-1/GIP RECEPTORS FOR LUNG DISEASE” (HANMI PHARM. CO., LTD., priority 2020, published 2023).
# Positions of bridges follow the written chain, without caps; N, C: chain ends. Non-standard residues stand in square brackets, D forms with d. No end group written: not given here. *: point of attachment. Acetyl(2-(4-imidazolyl)) = O=C(Cc1c[nH]cn1)*; Aib = CC(C)(N)C(=O)O
# T1: human GIP receptor (human, UniProt P48546 22-466)
# T1 sequence (looked up): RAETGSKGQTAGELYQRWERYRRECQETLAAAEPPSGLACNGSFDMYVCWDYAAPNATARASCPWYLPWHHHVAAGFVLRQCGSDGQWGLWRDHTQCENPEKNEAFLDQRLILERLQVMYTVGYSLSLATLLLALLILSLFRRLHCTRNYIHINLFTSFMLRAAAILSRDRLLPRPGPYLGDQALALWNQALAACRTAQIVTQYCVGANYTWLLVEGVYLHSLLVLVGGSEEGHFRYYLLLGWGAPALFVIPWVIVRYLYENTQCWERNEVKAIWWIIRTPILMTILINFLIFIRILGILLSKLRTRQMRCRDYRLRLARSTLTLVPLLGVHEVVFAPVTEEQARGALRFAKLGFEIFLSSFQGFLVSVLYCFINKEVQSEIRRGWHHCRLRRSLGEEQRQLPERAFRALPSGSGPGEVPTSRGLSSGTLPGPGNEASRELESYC
# Biological target: human GLP-1 receptor (human, UniProt P43220 24-463)
# Assay: cell-based or functional assay
row,Binder,In vitro Activity Compared to Native Peptide (%) vs. GLP-1
1,Y[Aib]QGTFTSDYSKYLDEKRAKEFVQWLLDHHCSSGQPPPS (bridge 16-20) [triple agonist of SEQ ID NO: 43],12.6%
2,{Acetyl(2-(4-imidazolyl))}-[Aib]QGTFTSDYSICMDEKHQKDFVNWLLNTK (bridge 15-19) [triple agonist of SEQ ID NO: 59],40.3%
3,H[Aib]QGTFTSDVSSYLLGQQQKEFIAWLVKGC [triple agonist of SEQ ID NO: 4],8.5%
4,H[Aib]QGTFTSDKSKYLDECAAQDFVQWLLDGGPSSGAPPPS [triple agonist of SEQ ID NO: 41],34.3%
5,H[Aib]QGTFTSDYSIAMDEIHQKDFVNWLLAQC (bridge 16-20) [triple agonist of SEQ ID NO: 55],27.1%
6,H[Aib]QGTFTSDYSKYLCEKRQKEFVQWLLNGGPSSGAPPPSG (bridge 16-20) [triple agonist of SEQ ID NO: 36],37.4%
7,H[Aib]QGTFTSDYSKYLDECRQKEFVQWLLNGGPSSGAPPPSG (bridge 16-20) [triple agonist of SEQ ID NO: 37],236%
8,H[Aib]QGTFTSDYSIAMDEIHQKDFVNWLLNTKC (bridge 16-20) [triple agonist of SEQ ID NO: 35],7.5%
9,{Acetyl(2-(4-imidazolyl))}-[Aib]QGTFTSDYSICMDEIHQKDFVNWLLNTK (bridge 15-19) [triple agonist of SEQ ID NO: 49],29.8%
10,H[Aib]EGTFTSDYSIAMDEIHQKDFVDWLLAEC (bridge 16-20) [triple agonist of SEQ ID NO: 54],30.6%
11,[Acetyl(2-(4-imidazolyl))][Aib]QGTFTSDKSSYLDERAAQDFVQWLLDGGPSSGAPPPSS [triple agonist of SEQ ID NO: 38],2.3%
12,H[Aib]QGTFTSDVSSYLDGQAAKEFIAWLVKGC [triple agonist of SEQ ID NO: 1],3.2%
13,H[Aib]QGTFTSDYSKYLDEKRQKEFVQWLLNTC (bridge 16-20) [triple agonist of SEQ ID NO: 51],14.4%
14,H[Aib]QGTFTSDKSKYLDERACQDFVQWLLDGGPSSGAPPPS [triple agonist of SEQ ID NO: 40],75.2%
15,H[Aib]QGTFTSDYSKYLDGQHAQCFVAWLLAGGGPSSGAPPPS [triple agonist of SEQ ID NO: 39],13.9%
16,Y[Aib]QGTFTSDYSKYLDEKRAKEFVQWLLDHHPSSGQPPPSC (bridge 16-20) [triple agonist of SEQ ID NO: 42],33.9%

# Biological target: human GCG receptor (human, UniProt P47871 26-477)
# Assay: cell-based or functional assay
# Sequence of human GCG receptor (P47871 26-477): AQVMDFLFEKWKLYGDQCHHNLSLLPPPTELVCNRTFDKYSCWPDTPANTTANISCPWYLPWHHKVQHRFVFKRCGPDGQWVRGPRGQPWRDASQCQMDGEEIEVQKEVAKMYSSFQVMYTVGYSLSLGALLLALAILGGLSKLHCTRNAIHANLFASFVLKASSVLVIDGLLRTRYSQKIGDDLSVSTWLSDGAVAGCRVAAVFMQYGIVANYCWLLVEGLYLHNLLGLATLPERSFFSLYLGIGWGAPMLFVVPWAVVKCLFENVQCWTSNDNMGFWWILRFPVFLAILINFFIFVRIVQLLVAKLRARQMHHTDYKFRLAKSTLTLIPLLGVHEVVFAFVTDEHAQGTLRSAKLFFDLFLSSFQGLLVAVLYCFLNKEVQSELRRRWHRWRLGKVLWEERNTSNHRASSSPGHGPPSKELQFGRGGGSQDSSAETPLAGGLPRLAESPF
row,Binder,In vitro Activity Compared to Native Peptide (%) vs. Glucagon
1,Y[Aib]QGTFTSDYSKYLDEKRAKEFVQWLLDHHCSSGQPPPS (bridge 16-20) [triple agonist of SEQ ID NO: 43],88.4%
2,{Acetyl(2-(4-imidazolyl))}-[Aib]QGTFTSDYSICMDEKHQKDFVNWLLNTK (bridge 15-19) [triple agonist of SEQ ID NO: 59],< 0.1%
3,H[Aib]QGTFTSDVSSYLLGQQQKEFIAWLVKGC [triple agonist of SEQ ID NO: 4],< 0.1%
4,H[Aib]QGTFTSDKSKYLDECAAQDFVQWLLDGGPSSGAPPPS [triple agonist of SEQ ID NO: 41],< 0.1%
5,H[Aib]QGTFTSDYSIAMDEIHQKDFVNWLLAQC (bridge 16-20) [triple agonist of SEQ ID NO: 55],0.7%
6,H[Aib]QGTFTSDYSKYLCEKRQKEFVQWLLNGGPSSGAPPPSG (bridge 16-20) [triple agonist of SEQ ID NO: 36],0.39%
7,H[Aib]QGTFTSDYSKYLDECRQKEFVQWLLNGGPSSGAPPPSG (bridge 16-20) [triple agonist of SEQ ID NO: 37],6.21%
8,H[Aib]QGTFTSDYSIAMDEIHQKDFVNWLLNTKC (bridge 16-20) [triple agonist of SEQ ID NO: 35],< 0.1%
9,{Acetyl(2-(4-imidazolyl))}-[Aib]QGTFTSDYSICMDEIHQKDFVNWLLNTK (bridge 15-19) [triple agonist of SEQ ID NO: 49],< 0.1%
10,H[Aib]EGTFTSDYSIAMDEIHQKDFVDWLLAEC (bridge 16-20) [triple agonist of SEQ ID NO: 54],1.4%
11,H[Aib]QGTFTSDVSSYLDGQAAKEFIAWLVKGC [triple agonist of SEQ ID NO: 1],< 0.1%
12,H[Aib]QGTFTSDYSKYLDEKRQKEFVQWLLNTC (bridge 16-20) [triple agonist of SEQ ID NO: 51],2%
13,H[Aib]QGTFTSDKSKYLDERACQDFVQWLLDGGPSSGAPPPS [triple agonist of SEQ ID NO: 40],< 0.1%
14,H[Aib]QGTFTSDYSKYLDGQHAQCFVAWLLAGGGPSSGAPPPS [triple agonist of SEQ ID NO: 39],0.53%
15,Y[Aib]QGTFTSDYSKYLDEKRAKEFVQWLLDHHPSSGQPPPSC (bridge 16-20) [triple agonist of SEQ ID NO: 42],206%

# Biological target: T1, human GIP receptor
# Assay: cell-based or functional assay
row,Binder,In vitro Activity Compared to Native Peptide (%) vs. GIP
1,Y[Aib]QGTFTSDYSKYLDEKRAKEFVQWLLDHHCSSGQPPPS (bridge 16-20) [triple agonist of SEQ ID NO: 43],3.7%
2,{Acetyl(2-(4-imidazolyl))}-[Aib]QGTFTSDYSICMDEKHQKDFVNWLLNTK (bridge 15-19) [triple agonist of SEQ ID NO: 59],4%
3,H[Aib]QGTFTSDVSSYLLGQQQKEFIAWLVKGC [triple agonist of SEQ ID NO: 4],< 0.1%
4,H[Aib]QGTFTSDKSKYLDECAAQDFVQWLLDGGPSSGAPPPS [triple agonist of SEQ ID NO: 41],< 0.1%
5,H[Aib]QGTFTSDYSIAMDEIHQKDFVNWLLAQC (bridge 16-20) [triple agonist of SEQ ID NO: 55],2.4%
6,H[Aib]QGTFTSDYSKYLCEKRQKEFVQWLLNGGPSSGAPPPSG (bridge 16-20) [triple agonist of SEQ ID NO: 36],0.2%
7,H[Aib]QGTFTSDYSKYLDECRQKEFVQWLLNGGPSSGAPPPSG (bridge 16-20) [triple agonist of SEQ ID NO: 37],2.2%
8,H[Aib]QGTFTSDYSIAMDEIHQKDFVNWLLNTKC (bridge 16-20) [triple agonist of SEQ ID NO: 35],1.3%
9,{Acetyl(2-(4-imidazolyl))}-[Aib]QGTFTSDYSICMDEIHQKDFVNWLLNTK (bridge 15-19) [triple agonist of SEQ ID NO: 49],3.3%
10,H[Aib]EGTFTSDYSIAMDEIHQKDFVDWLLAEC (bridge 16-20) [triple agonist of SEQ ID NO: 54],0.1%
11,H[Aib]QGTFTSDVSSYLDGQAAKEFIAWLVKGC [triple agonist of SEQ ID NO: 1],< 0.1%
12,H[Aib]QGTFTSDYSKYLDEKRQKEFVQWLLNTC (bridge 16-20) [triple agonist of SEQ ID NO: 51],0.1%
13,H[Aib]QGTFTSDKSKYLDERACQDFVQWLLDGGPSSGAPPPS [triple agonist of SEQ ID NO: 40],< 0.1%
14,H[Aib]QGTFTSDYSKYLDGQHAQCFVAWLLAGGGPSSGAPPPS [triple agonist of SEQ ID NO: 39],< 0.1%
15,Y[Aib]QGTFTSDYSKYLDEKRAKEFVQWLLDHHPSSGQPPPSC (bridge 16-20) [triple agonist of SEQ ID NO: 42],7.8%
